Assay results taken from publication PMC314469, “Protein Interaction Networks by Proteome Peptide Scanning” (PLoS Biology, 2004).

Experiments:
[1] = biological target: endophilin SH3 (SH3G2_HUMAN), Q99962; assay: SPOT array
[2] = biological target: T1, amphyphisin SH3 (AMPH_HUMAN), P49418; assay: SPOT array
T1 chain: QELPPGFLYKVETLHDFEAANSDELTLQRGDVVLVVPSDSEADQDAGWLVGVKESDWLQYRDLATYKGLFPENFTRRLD

Binder | normalised SPOT signal, Boehringer light units (BLU); mean over the file's lines of this peptide [1] | normalised SPOT signal, Boehringer light units (BLU); mean over the file's lines of this peptide [2]
KLKSPKRPASPSSP [Q9H8D2 66-79] | 803 | 32.4
KLMEPHRPERQDEK [P49593 287-300] | 146 | 485
KLMKFSRPKKTRSG [Q9UIG2 1550-1563] | 1.7 | 0
ANLALRRPQGSTSR [P06681 588-601] | 322 | 12.6
KNLDISRPDKKSKK [P46977 431-444] | 342 | 327
KNRTFLRPPKVKME [O75937 248-261] | 55.9 | 77.8
KPASPKKPPPGERR [Q9UQ36 1183-1197] | 779 | 43.2
KPASPKKPPPGERS [O60382 1692-1706] | 737 | 56
KPEGLRRPPSKTSM [Q15047 1069-1082] | 41.2 | 32.3
KPGSPYRPPVPRAP [Q14687 646-660] | 1840 | 201
KPPALPRPIRNLEV [P47895 16-29] | 958 | 118
KPPKPPKPPRPPKT [Q9Y6N4 506-520] | 16900 | 3550
KPPKPPRPPKTLKL [Q9Y6N4 509-523] | 25300 | 1290
KPQPPARPPPPVLP [Q9UKL5 750-764] | 10900 | 1520
ANLQPKRPKTIKQR [Q9NXX2 8-21] | 55.4 | 23.6
KPQRPRRPASPIST [P07360 22-35] | 9220 | 2580
KPQTIKRPLNPLAS [Q9UKV6 127-140] | 52.2 | 9
